Measurements as given in patent publication EP1708961B1 (Abbott Biotherapeutics Corp., dated 2011).
“And” between values parts separate entries of the source, which are not always exact repeats. Identical values can stand only once.

T1: recombinant human IP-10 (human, UniProt P02778 22-98)
T1 construct: Bought from R&D Systems; also called CXCL10; rhIP-10
T1 sequence: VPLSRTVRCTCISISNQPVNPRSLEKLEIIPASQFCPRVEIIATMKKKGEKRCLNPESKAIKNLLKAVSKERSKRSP


Legend:
recombinant human IP-10 [1] = molecular target: T1, recombinant human IP-10; assay: Biacore 2000 (SPR)
recombinant human IP-10 [2] = molecular target: T1, recombinant human IP-10; assay: competition ELISA on human IP-10, competitor: AIP13
recombinant human IP-10 [3] = molecular target: T1, recombinant human IP-10; assay: Biacore 2000 (SPR), antibody captured by goat anti-human IgG Fc, human IP-10 injected
recombinant human IP-10 [4] = molecular target: T1, recombinant human IP-10; assay: Biacore (Table 3)
recombinant human IP-10 [5] = molecular target: T1, recombinant human IP-10; assay: Biacore (SPR)
recombinant human IP-10 [6] = molecular target: T1, recombinant human IP-10; assay: cell-based or functional assay
recombinant human IP-10 [7] = molecular target: T1, recombinant human IP-10; assay: cell-based or functional assay; remark: listed apart in the source
recombinant human IP-10 [8] = molecular target: T1, recombinant human IP-10; assay: competition ELISA on coated human IP-10; Exp. A
recombinant human IP-10 [9] = molecular target: T1, recombinant human IP-10; assay: competition ELISA on coated human IP-10; Exp. B
recombinant human IP-10 [10] = molecular target: T1, recombinant human IP-10; assay: competition ELISA on coated human IP-10; Exp. C
recombinant human IP-10 [11] = molecular target: T1, recombinant human IP-10; assay: competition ELISA on coated human IP-10; Exp. D
recombinant human IP-10 [12] = molecular target: T1, recombinant human IP-10; assay: competition ELISA on coated human IP-10; average
recombinant human IP-10 [13] = molecular target: T1, recombinant human IP-10; assay: competition ELISA on coated human IP-10, competitor: biotinylated MuAIP12; Exp. A
recombinant human IP-10 [14] = molecular target: T1, recombinant human IP-10; assay: competition ELISA on coated human IP-10, competitor: biotinylated MuAIP12; Exp. B
recombinant human IP-10 [15] = molecular target: T1, recombinant human IP-10; assay: competition ELISA on coated human IP-10, competitor: biotinylated MuAIP12; Exp. C
recombinant human IP-10 [16] = molecular target: T1, recombinant human IP-10; assay: competition ELISA on coated human IP-10, competitor: biotinylated MuAIP12; Exp. D
recombinant human IP-10 [17] = molecular target: T1, recombinant human IP-10; assay: competition ELISA on coated human IP-10, competitor: biotinylated MuAIP12; average
recombinant human IP-10 [18] = molecular target: T1, recombinant human IP-10; assay: competition ELISA on coated human IP-10; Exp. A; remark: listed apart in the source
recombinant human IP-10 [19] = molecular target: T1, recombinant human IP-10; assay: competition ELISA on coated human IP-10; Exp. B; remark: listed apart in the source
recombinant human IP-10 [20] = molecular target: T1, recombinant human IP-10; assay: competition ELISA on coated human IP-10; Exp. C; remark: listed apart in the source
recombinant human IP-10 [21] = molecular target: T1, recombinant human IP-10; assay: competition ELISA on coated human IP-10; average; remark: listed apart in the source
recombinant human IP-10 [22] = molecular target: T1, recombinant human IP-10; assay: competition ELISA on coated human IP-10, competitor: biotinylated MuAIP13; Exp. A
recombinant human IP-10 [23] = molecular target: T1, recombinant human IP-10; assay: competition ELISA on coated human IP-10, competitor: biotinylated MuAIP13; Exp. B
recombinant human IP-10 [24] = molecular target: T1, recombinant human IP-10; assay: competition ELISA on coated human IP-10, competitor: biotinylated MuAIP13; Exp. C
recombinant human IP-10 [25] = molecular target: T1, recombinant human IP-10; assay: competition ELISA on coated human IP-10, competitor: biotinylated MuAIP13; average

| Binder | IC50 (recombinant human IP-10 [2]) | Kd (recombinant human IP-10 [3]) | koff (recombinant human IP-10 [3]) | kon (recombinant human IP-10 [3]) | Kd (recombinant human IP-10 [5]) | koff (recombinant human IP-10 [5]) | kon (recombinant human IP-10 [5]) | inhibition of chemotaxis (IC50%) on recombinant IP-10, donor 215 (recombinant human IP-10 [7]) | inhibition of chemotaxis (IC50%) on recombinant IP-10, donor 318 (recombinant human IP-10 [7]) | inhibition of chemotaxis (IC50%) on recombinant IP-10, donor 1012 (recombinant human IP-10 [7]) | inhibition of chemotaxis (IC50%) on recombinant IP-10, mean of donors (recombinant human IP-10 [7]) | other results |
| --- | --- | --- | --- | --- | --- | --- | --- | --- | --- | --- | --- | --- |
| HuAIP12 G104A variant antibody (antibody, human IgG1, V domains shown, Human IgG1/kappa (gamma-1 and kappa expression vectors), transiently expressed in 293-H cells) VH: EVQLVQSGAEVKKPGATVKISCKVSGYTFTDYSMHWVRQAPGKGLKWMGWINTETGEPTYADDFKGRFTFTLDTSTSTAYMELSSLRSEDTAVYYCARNYDYDAYFDVWGQGTTVTVSS VL: DIQMTQSPSSLSASVGDRVTITCKASQDINKYIAWYQQKPGKAPKLLIHYTSTLQPGIPSRFSGSGSGRDYTFTISSLQPEDIATYYCLQYDNLLFTFGQGTKLEIK | 59.5 µg/mL | 5.98 nM | 0.000784 s⁻¹ | 131000 M⁻¹ s⁻¹ | – | – | – | – | – | – | – | fold faster off-rate (kd) against unmodified HuAIP12 (recombinant human IP-10 [1]): ~2 fold; fold higher Kd against unmodified HuAIP12 (recombinant human IP-10 [1]): > 20 fold; fold slower on-rate (ka) against unmodified HuAIP12 (recombinant human IP-10 [1]): ~10 fold; fold weaker monovalent interaction against unmodified HuAIP12 (recombinant human IP-10 [1]): 20 fold; fold decrease in binding affinity against unmodified HuAIP12 (recombinant human IP-10 [2]): 14.5 fold |
| 12H+13L antibody (antibody, V domains shown, HuAIP12 heavy chain with HuAIP13 light chain; human gamma-1/kappa) VH: EVQLVQSGAEVKKPGATVKISCKVSGYTFTDYSMHWVRQAPGKGLKWMGWINTETGEPTYADDFKGRFTFTLDTSTSTAYMELSSLRSEDTAVYYCARNYDYDGYFDVWGQGTTVTVSS VL: DIQMTQSPSSLSASVGDRVTITCKADQDINKYIAWYQQKPGKAPKLLLHHTSTLQPGIPSRFSGSGSGRDYTFTISSLQPEDIATYYCLQYDSLLFTFGQGTKLEIK | 3 µg/mL | – | – | – | – | – | – | – | – | – | – | – |
| 13H+12L antibody (antibody, V domains shown, HuAIP13 heavy chain with HuAIP12 light chain; human gamma-1/kappa) VH: EVQLVQSGAEVKKPGATVKISCKVSGYTFTDYSMHWVRQAPGKGLKWMGWINTEIGEPTYADDFKGRFTFTLDTSTSTAYMELSSLRSEDTAVYYCARNYDYDAYFDVWGQGTTVTVSS VL: DIQMTQSPSSLSASVGDRVTITCKASQDINKYIAWYQQKPGKAPKLLIHYTSTLQPGIPSRFSGSGSGRDYTFTISSLQPEDIATYYCLQYDNLLFTFGQGTKLEIK | 13.6 µg/mL | – | – | – | – | – | – | – | – | – | – | – |
| humanized monoclonal antibody HuAIP12 (antibody, human IgG1, V domains shown, Human IgG1/kappa; also called unmodified HuAIP12; Wild Type) VH: EVQLVQSGAEVKKPGATVKISCKVSGYTFTDYSMHWVRQAPGKGLKWMGWINTETGEPTYADDFKGRFTFTLDTSTSTAYMELSSLRSEDTAVYYCARNYDYDGYFDVWGQGTTVTVSS VL: DIQMTQSPSSLSASVGDRVTITCKASQDINKYIAWYQQKPGKAPKLLIHYTSTLQPGIPSRFSGSGSGRDYTFTISSLQPEDIATYYCLQYDNLLFTFGQGTKLEIK | 3.1 µg/mL and 4.1 µg/mL | 0.251 nM | 0.000381 s⁻¹ | 1.55e+06 M⁻¹ s⁻¹ | 0.472 nM | 0.000357 s⁻¹ | 755000 M⁻¹ s⁻¹ | 0.142 µg/mL | 0.038 µg/mL | 0.073 µg/mL | 0.086 µg/mL | fold higher binding affinity than HuAIP13 (recombinant human IP-10 [4]): ~2.6 fold; IC50 of inhibition of IP-10 mediated chemotaxis (recombinant human IP-10 [6]): ~0.1 µg/mL; fold difference of IC50 against MuAIP12 (recombinant human IP-10 [8]): 2.9 fold; fold difference of IC50 against MuAIP12 (recombinant human IP-10 [9]): 2.4 fold; fold difference of IC50 against MuAIP12 (recombinant human IP-10 [10]): 2.2 fold; fold difference of IC50 against MuAIP12 (recombinant human IP-10 [11]): 2.4 fold; fold difference of IC50 against MuAIP12 (recombinant human IP-10 [12]): 2.5 fold; IC50 (recombinant human IP-10 [13]): 18.6 µg/mL; IC50 (recombinant human IP-10 [14]): 10.7 µg/mL; IC50 (recombinant human IP-10 [15]): 14.5 µg/mL; IC50 (recombinant human IP-10 [16]): 10.3 µg/mL; IC50 (recombinant human IP-10 [17]): 13.5 µg/mL |
| humanized monoclonal antibody HuAIP13 (antibody, human IgG1, V domains shown, Human IgG1/kappa) VH: EVQLVQSGAEVKKPGATVKISCKVSGYTFTDYSMHWVRQAPGKGLKWMGWINTEIGEPTYADDFKGRFTFTLDTSTSTAYMELSSLRSEDTAVYYCARNYDYDAYFDVWGQGTTVTVSS VL: DIQMTQSPSSLSASVGDRVTITCKADQDINKYIAWYQQKPGKAPKLLLHHTSTLQPGIPSRFSGSGSGRDYTFTISSLQPEDIATYYCLQYDSLLFTFGQGTKLEIK | 9.2 µg/mL | – | – | – | 1.24 nM | 0.000194 s⁻¹ | 156000 M⁻¹ s⁻¹ | 0.139 µg/mL | 0.045 µg/mL | 0.077 µg/mL | 0.086 µg/mL | IC50 of inhibition of IP-10 mediated chemotaxis (recombinant human IP-10 [6]): ~0.1 µg/mL; fold difference of IC50 against MuAIP13 (recombinant human IP-10 [18]): 2.9 fold; fold difference of IC50 against MuAIP13 (recombinant human IP-10 [19]): 2.7 fold; fold difference of IC50 against MuAIP13 (recombinant human IP-10 [20]): 2.7 fold; fold difference of IC50 against MuAIP13 (recombinant human IP-10 [21]): 2.8 fold; IC50 (recombinant human IP-10 [22]): 6.1 µg/mL; IC50 (recombinant human IP-10 [23]): 6.5 µg/mL; IC50 (recombinant human IP-10 [24]): 4.8 µg/mL; IC50 (recombinant human IP-10 [25]): 5.8 µg/mL |
| murine monoclonal antibody AIP12 (antibody, V domains shown, Mouse hybridoma antibody; also called MuAIP12) VH: QIQLVQSGPELKKPGETVKISCKASGYTFTDYSMHWVKQAPGKGLKWMGWINTETGEPTYADDFKGRFAFSLETSASTAYLQINNLKNEDTATYFCARNYDYDGYFDVWGAGTTVTVSS VL: DIQMTQSPSSLSASLGGKVTITCKASQDINKYIAWYQHKPGKGPRLLIHYTSTLQPGIPSRFSGSGSGRDYSFSISNLEPEDIATYYCLQYDNLLFTFGSGTKLEIK | – | – | – | – | 0.275 nM | 0.000282 s⁻¹ | 1.05e+06 M⁻¹ s⁻¹ | 0.13 µg/mL | 0.041 µg/mL | 0.091 µg/mL | 0.089 µg/mL | inhibition of chemotaxis (IC50%) on recombinant IP-10, donor 1022 (recombinant human IP-10 [7]): 0.135 µg/mL and 0.051 µg/mL and 0.086 µg/mL; IC50 (recombinant human IP-10 [13]): 6.5 µg/mL; IC50 (recombinant human IP-10 [14]): 4.4 µg/mL; IC50 (recombinant human IP-10 [15]): 6.6 µg/mL; IC50 (recombinant human IP-10 [16]): 4.2 µg/mL; IC50 (recombinant human IP-10 [17]): 5.4 µg/mL |
| murine monoclonal antibody AIP13 (antibody, V domains shown, Mouse hybridoma antibody; Mouse IgG1/kappa was used as its isotype control; also called MuAIP13) VH: QIQLVQSGPELKKPGETVKISCKASGYTFTDYSMHWVKQAPGKGLKWMGWINTEIGEPTYADDFKGRFAFSLETSASTAYLQINNLKNEDTATYFCARNYDYDAYFDVWGAGTTVTVSS VL: DIQMTQSPSSLSASLGGKVTITCKADQDINKYIAWYQHKPGRGPRLLLHHTSTLQPGIPSRFSGSGSGRDYSFSISNLEPADIATYYCLQYDSLLFTFGSGTKLEIK | – | – | – | – | 1.24 nM | 0.000196 s⁻¹ | 158000 M⁻¹ s⁻¹ | 0.26 µg/mL | 0.139 µg/mL | 0.084 µg/mL | 0.157 µg/mL | inhibition of chemotaxis (IC50%) on recombinant IP-10, donor 1022 (recombinant human IP-10 [7]): 0.229 µg/mL and 0.154 µg/mL and 0.078 µg/mL; IC50 (recombinant human IP-10 [22]): 2.1 µg/mL; IC50 (recombinant human IP-10 [23]): 2.4 µg/mL; IC50 (recombinant human IP-10 [24]): 1.8 µg/mL; IC50 (recombinant human IP-10 [25]): 2.1 µg/mL |
| HuAIP12 T55I variant antibody (antibody, V domains shown) VH: EVQLVQSGAEVKKPGATVKISCKVSGYTFTDYSMHWVRQAPGKGLKWMGWINTEIGEPTYADDFKGRFTFTLDTSTSTAYMELSSLRSEDTAVYYCARNYDYDGYFDVWGQGTTVTVSS VL: DIQMTQSPSSLSASVGDRVTITCKASQDINKYIAWYQQKPGKAPKLLIHYTSTLQPGIPSRFSGSGSGRDYTFTISSLQPEDIATYYCLQYDNLLFTFGQGTKLEIK | 1.6 µg/mL | 0.0269 nM | 4.67e-05 s⁻¹ | 1.66e+06 M⁻¹ s⁻¹ | – | – | – | – | – | – | – | fold slower off-rate against unmodified HuAIP12 (recombinant human IP-10 [1]): ~9 fold; fold stronger affinity against unmodified HuAIP12 (recombinant human IP-10 [1]): > 9 fold |
